Assay results from patent US20260116991A1 (HAINAN SIMCERE ZAIMING PHARMACEUTICAL, published 2026).
Where a chain is given by its changes, count along the chain named.

B1: F2.55.11 human-murine chimeric antibody (antibody, human IgG1, kappa, V domains shown)
VH: EVKLVESGGGLVKPGGSLKLSCAASGLTFSTCTMSWVRQTPAKRLEWVATISSGGGNTYYPDSVKGRFTISRDNARNTLYLQMSSLRSEDTAMYYCVRLYYDGSPYAMDYWGQGTSVTVSS
VL: DIQMTQTTSSLSASLGDRVTISCRASQDISNHLNWYQQKPDGTVKLLIYYTSRLHSGVPSRFSGSGSGTDYSLTISNLEQEDIATYFCQQDSKPPPTFGSGTKLEIKR
B2: F2.39.2 human-murine chimeric antibody (antibody, human IgG1, kappa, V domains shown)
VH: QVQLQQSGAELVRPGASVKVSCKASGYTFTDYEMHWMKQTPVHGLEWIGANEPETGRSAYDQKFKGKATLTADKSSSTAYMELRSLTSEDSAVYYCTRFYSFAYWGQGTLVTVSA
VL: DVVMTQTPLSLPVSLGDQASISCRSSQGLVHNNGNTYLHWYLQKPGQSPKLLIYKVSNRFSGVPDRFSGSGSGTDFTLKISRVEAEDLGVYFCSQNTHVPPTFGGGTKLEIKR
B3: F2.92.1 human-murine chimeric antibody (antibody, human IgG1, kappa, V domains shown)
VH: QVQLQQSGAELVRPGASVKLSCKASGYIFSDYEIHWVKQTPVHGLECIGAVDPETGGTAYNQKFKGKATLTADKSSSTAYMELRSLTSEDSAVYFCTRFYSFAYWGQGTLVTVST
VL: B2 VL with A19G, G28S, N32S, H39Q, S94C, N96S, P100L
B4: F3.54.12 human-murine chimeric antibody (antibody, human IgG1, kappa, V domains shown)
VH: QVQLQQSGAELVRPGASVKLSCKASGYTFTDYEMHWVKQTPVHGLEWIGAIDPETGNTAYIQKFKGKATLTTDKSSSTAYMELRSLTSEDSAVYYCTRFYSYSHWGQGTTLTVSS
VL: B2 VL with G28S, N32S, G71S
B5: F4.13.7 human-murine chimeric antibody (antibody, human IgG1, kappa, V domains shown)
VH: QVQLQQPGAELVKPGASVKLSCKASGYTFTNNWVHWVKQRPGQGLEWTGMIHPDSGSTIYNEKFQSKATLTVDKSSSTAYMQLSSLTSEDSAVYYCARGYYDSSSYYAMDYWGQGTSVTVSS
VL: NIQMTQTTSSLSASLGDRVTISCSASQGIFNYLNWYQQKPDGTVKLLIYYTSSLHSGVPSRFSGSGSGTDYSLTISNLEPEDIATYYCQQYSKLPWTFGGGTKLEIKR
B6: F2.154.1 human-murine chimeric antibody (antibody, human IgG1, kappa, V domains shown)
VH: QVQLQQSGAELVRPGASVKLSCKASGYRFTDYEMHWVKQTPVHGLEWIGTIDPETGNTAYTQKFMDKATLTADKSSSTAYMELRSLTSEDSAVYYCTRGYSFTYWGQGTLATVSA
VL: DVLMTQTPLSLPVSLGDQASISCRSSQNIVHSNGNTYLQWYLQKPGQSPKLLIFKVSNRFSGVPDRFSGSGSGTDFTLKISRVEAEDLGVYYCFQGSHVPFTFGTGTKLEIKR
B7: F2.169.2 human-murine chimeric antibody (antibody, human IgG1, kappa, V domains shown)
VH: EVQLVETGGGLVQPKGSLKLSCAASGFSFNTNAMNWVRQAPGKGLEWVARIRSKSNNYATYYADSVKDRFTISRDDSQSMLYLQMNNLKTEDTAMYYCVRDGYYVLFAYWGQGTLVTVSA
VL: B6 VL with S25F, N28S, H31N, Q39E, Y41F, F54Y
B8: F2.23.8 human-murine chimeric antibody (antibody, human IgG1, kappa, V domains shown)
VH: B3 VH with I28T, S30T, I34M, C47W, I48F, V51I, K65R, G66A, F95Y, T115A
VL: B2 VL with G28S, N32S, H39Q, S81T, N96S, P101Y, G105S
B9: F3.38.7 human-murine chimeric antibody (antibody, human IgG1, kappa, V domains shown)
VH: QVQLQQSGAELVRPGASVKLSCKASGYTFTDYEIHWVKQTPVLGLEWIGAIDPKTGNTAYNQKFMGKATLTADKSSTTAYMDLRSLTSEDSAVYYCTRYFSFAYWGQGTLVTVSA
VL: B6 VL with N28T, I29F, F54Y, F101Y, T105S
B10: F2.152.3 human-murine chimeric antibody (antibody, human IgG1, kappa, V domains shown)
VH: EVQLQQSGPELVKPGASVKMSCKASGYTFTDYYMTWVKQSHGKSLEWIGRVNPRNGDTTYNQKFEGRATLTLDKSLSTAFMQLNSLTSEDSAVYYCINSKGHFDYWGQGTTLTVSS
VL: B6 VL with N28S, Q39E, Y41F, L51S, F54Y, F101P, T105A, I111L
B11: F3.81.19 human-murine chimeric antibody (antibody, human IgG1, kappa, V domains shown)
VH: B6 VH with R28T, T61N, M65K, D66G, G99P, F102L, A111V
VL: B6 VL with M4L, N28S, I29F, N35D, F54Y, F101Y, T105S

Key:
[1] = molecular target: T1, human GPC3 on CHO-K1-human GPC3 cells (clone CHOK1-hGPC3.2B5) (human, UniProt P51654 25-554); test: FACS on CHOK1-hGPC3.2B5 cells;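 also: flow cytometry binding of chimeric antibodies to the cells, read out as mean fluorescence intensity, with the half-maximal concentration derived by curve fitting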
T1 construct: whole, on cells; Stably transfected CHO-K1 clone 2B5

human GPC3-His protein [2] = molecular target: T2, human GPC3-His protein (human, UniProt P51654 25-559); test: ELISA, coated human GPC3, antibody 0.01 nM;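 also: Plate-bound antigen coated at 1 µg/mL, antibody incubated 2 h at 37 °C, binding detected by HRP-conjugated secondary antibody with TMB substrate, read as absorbance at 450 nm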
T2 construct: Bought protein; also called human GPC3 protein; not shown: His tag

human GPC3-His protein [3] = molecular target: T2, human GPC3-His protein; test: ELISA, coated human GPC3, antibody 100 nM;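 also: antibodies bound to antigen-coated 96-well plates (1 µg/mL), 2 h at 37 °C, detected with HRP-labelled secondary antibody and TMB substrate, absorbance read at 450 nm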
Method: (§1) The specific method is described as follows: The antigen protein was diluted with PBS to a final concentration of 1 μg/mL, and the diluent was added to a 96-well ELISA plate at 50 μL/well. The plate was sealed with a plastic film and incubated at 4° C. overnight, washed twice with PBS the next day, and a blocking solution [PBS+2% (w/w) BSA] was added for blocking at room temperature for 2 h. […] After incubation at 37° C. for 2 h, the plate was washed 3 times with PBS. A horseradish peroxidase (HRP)-labeled secondary antibody (purchased from Merck, Cat. No. AP113P) was added for incubation at 37° C. for 1 h, and the plate was washed 5 times with PBS. A TMB substrate was added at 50 μL/well for incubation at room temperature for 10 min, then a stop solution (1.0M HCl) was added at 50 μL/well. An ELISA plate reader (Multimode Plate Reader, EnSight, purchased from Perkin Elmer) was used to read OD_{450 nm} values, with results as shown in Table 4 to Table 6, FIG. 1A, FIG. 1B, and FIG. 1C.

[4] = molecular target: T3, GPC3 endogenously expressed on HepG2 cells (UniProt P51654 25-554); test: FACS on HepG2 cells;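 also: flow cytometric binding of chimeric antibodies to cells, read as mean fluorescence intensity, EC50 obtained by curve fitting of the MFI data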
T3 construct: whole, on cells

human GPC3-His protein [5] = molecular target: T2, human GPC3-His protein; test: ELISA, coated human GPC3, antibody 10 nM;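 also: plate coated with antigen at 1 µg/mL, antibodies bound 2 h at 37 °C, detected via HRP-conjugated secondary antibody and TMB substrate, absorbance read after acid stop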
Method: as §1

human GPC3-His protein [6] = molecular target: T2, human GPC3-His protein; test: ELISA, coated human GPC3, antibody 1 nM;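 also: antigen coated at 1 µg/mL on 96-well plates, antibody bound for 2 h at 37 °C, detected with HRP-labeled secondary antibody and TMB, absorbance read at 450 nm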
human GPC3-His protein [7] = molecular target: T2, human GPC3-His protein; test: ELISA, coated human GPC3, antibody 0.1 nM;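 also: antigen coated on 96-well plates at 1 µg/mL, antibody bound 2 h at 37 °C, detected with HRP-labeled secondary antibody and TMB substrate, acid-stopped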
Method: as §1

human GPC3-His protein [8] = molecular target: T2, human GPC3-His protein; test: ELISA, coated human GPC3, antibody 0.001 nM
human GPC3-His protein [9] = molecular target: T2, human GPC3-His protein; test: ELISA, coated human GPC3, antibody 0.0001 nM

Binder | EC50 [1] [nM] | Max MFI [1] [MFI] | OD450 nm (human GPC3-His protein [2]) [OD450] | OD450 nm (human GPC3-His protein [3]) [OD450] | EC50 [4] [nM] | Max MFI [4] [MFI] | OD450 nm (human GPC3-His protein [5]) [OD450] | OD450 nm (human GPC3-His protein [6]) [OD450] | OD450 nm (human GPC3-His protein [7]) [OD450] | OD450 nm (human GPC3-His protein [8]) [OD450] | OD450 nm (human GPC3-His protein [9]) [OD450]
B1 | 0.89 | 13600 | 0.43 | 2.58 | 0.66 | 1630 | 2.66 | 2.24 | 1.57 | 0.15 | 0.11
B2 | 1 | 26500 | 0.34 | 2.3 | 0.95 | 12700 | 2.34 | 2.21 | 1.33 | 0.12 | 0.1
B3 | 0.92 | 29400 | 0.32 | 2.45 | 0.92 | 14000 | 2.23 | 2.24 | 1.23 | 0.12 | 0.11
B4 | 0.72 | 15000 | 0.48 | 2.44 | 0.83 | 4460 | 2.41 | 2.29 | 1.58 | 0.15 | 0.13
B5 | 1.1 | 1710 | 0.3 | 2.3 | 0.58 | 1150 | 2.27 | 2.28 | 1.27 | 0.12 | 0.1
B6 | 1.14 | 26700 | 0.38 | 2.61 | 0.37 | 5450 | 2.52 | 2.31 | 1.57 | 0.13 | 0.09
B7 | 1.06 | 17300 | 0.27 | 2.43 | 0.65 | 3980 | 2.52 | 2.24 | 1.25 | 0.11 | 0.1
B8 | 1.48 | 23200 | 0.29 | 2.51 | 1.64 | 11300 | 2.35 | 2.16 | 1.28 | 0.12 | 0.1
B9 | 0.85 | 16200 | 0.38 | 2.48 | 1.2 | 4980 | 2.44 | 2.18 | 1.62 | 0.13 | 0.09
B10 | 0.73 | 2830 | 0.32 | 2.43 | 0.23 | 4490 | 2.43 | 2.28 | 1.45 | 0.13 | 0.1
B11 | 2.58 | 14100 | 0.19 | 2.45 | 2.72 | 5740 | 2.49 | 2.04 | 0.87 | 0.28 | 0.1
